Data as given in PMC7910438, “The TUTase URT1 connects decapping activators and prevents the accumulation of excessively deadenylated mRNAs to avoid siRNA biogenesis” (Nature Communications, 2021).

Biological target: T1, 6His-GST-URT1 (Arabidopsis thaliana, UniProt O64642 1-764)
T1 construct: URT1, Arabidopsis thaliana, AT2G45620, 764 amino acids; amplified from cDNA; Plasmids in Supplementary Data 7; expression and purification in Supplementary Methods; source: E. coli BL21 DE3, purified; not shown: 6His, N-terminal, kept; GST, N-terminal, kept
T1 sequence (looked up): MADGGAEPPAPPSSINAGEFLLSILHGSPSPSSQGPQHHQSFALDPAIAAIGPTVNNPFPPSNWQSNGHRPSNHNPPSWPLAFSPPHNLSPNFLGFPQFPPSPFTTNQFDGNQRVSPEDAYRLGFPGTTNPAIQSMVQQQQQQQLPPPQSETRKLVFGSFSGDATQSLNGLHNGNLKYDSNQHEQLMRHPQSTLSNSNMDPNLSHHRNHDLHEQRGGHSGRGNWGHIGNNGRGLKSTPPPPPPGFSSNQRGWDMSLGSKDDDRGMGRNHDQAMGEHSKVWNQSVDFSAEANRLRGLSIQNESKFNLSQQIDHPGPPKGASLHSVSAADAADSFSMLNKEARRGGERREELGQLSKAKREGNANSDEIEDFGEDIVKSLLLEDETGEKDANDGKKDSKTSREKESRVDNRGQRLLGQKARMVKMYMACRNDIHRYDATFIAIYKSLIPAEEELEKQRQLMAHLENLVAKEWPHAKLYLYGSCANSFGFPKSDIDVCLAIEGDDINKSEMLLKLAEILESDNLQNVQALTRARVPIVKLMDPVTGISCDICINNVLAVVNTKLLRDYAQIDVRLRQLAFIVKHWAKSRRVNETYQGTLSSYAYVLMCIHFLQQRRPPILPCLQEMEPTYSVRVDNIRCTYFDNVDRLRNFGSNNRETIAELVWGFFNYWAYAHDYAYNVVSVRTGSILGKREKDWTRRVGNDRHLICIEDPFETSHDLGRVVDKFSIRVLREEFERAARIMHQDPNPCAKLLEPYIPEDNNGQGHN
Test: pull-down; GST pull-down on glutathione sepharose; 10 pmol of each purified protein in 500 µl of 20 mM MOPS pH 7.2, 100 mM KCl, 15% glycerol, 0.1% Tween 20 with 100 ng/µl RNase A, 4 °C; SDS-PAGE, SYPRO Ruby
Details: both partners purified

B1: 6His-MBP-DCP5 (natural protein, Arabidopsis thaliana, UniProt Q9C658 1-611, looked up)
chain: MAADNTGSKSSSAADSYVGSLISLTSKSEIRYEGILYNINTDESSIGLQNVRSFGTEGRKKDGPQVPPSDKVYEYILFRGTDIKDLQVKASPPVQPPASTINNDPAIIQSHYPSPMPTSGSLPSTASGSLPDISSHNGQPGQHGMGFQNAMPLYQPGGNLGSWGASPQPPMYWQGFYTPPPNGLPQLHQQSLIRPPHGLPMPNSLQQPLQYPNFNTPPPPTGSSSLQGSSLPEAPSSLFPFSTSSQMLAPSSLPFPGLPPVTLSSSLQSTLQSAPSPSLASEMAPPLLSNKAPITAPPTLPQDTNLLSFSLSTTRATEASTGLPLSNKPSVVTGPISPPQTTPLTSAPVAGVSSSISQDKPKPLLVTPGQLLQSGSSAVSLSPPSTNADKDVEVVQVSSSAGLEQSVPVTSEAQPPILPLPSSARPTQKPNGHSFPNHNGYRGRGRGRGRGAGRSHQVMKFTEDFDFTAMNEKFNKDEVWGHLGKSTTLDGDEDDDSPTVDEAELPKIEAKPVYNKDDFFDSLSSNTIDRESQNSRPRFSEQRKLDTETFGEFSRFRGGRGGRGGYGRNNGYSRGGYGGRGYGGYGGRGGGGGGYGYGGRGQGRGVSNRTT
notes: DECAPPING 5 (DCP5), Arabidopsis thaliana, AT1G26110; amplified from cDNA; source: E. coli BL21 DE3, purified; not shown: 6His, N-terminal, kept; MBP, N-terminal, kept
binding result: binds
